Reference: the supplement of paper PMC9732359
± gives the uncertainty stated by the source.

Assay: protein stability index of a GFP-peptide fusion (yeast GPS) (PSI 1-4); higher = more stable; sorted into four equal gates, so the index is relative within each strain
Method in brief: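 Tiled 17-residue peptides from yeast proteins were fused downstream of GFP on a plasmid that also expresses Cherry, and the pooled library was carried in yeast. Mid-log cultures grown in leucine-free medium were sorted into four equal gates by GFP/Cherry fluorescence ratio. Plasmids from each gate were PCR-amplified and Illumina-sequenced, and reads were assigned to strains by barcodes. Each peptide's protein stability index is the sum, over gates, of the gate's read frequency multiplied by its gate number.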

| Sequence | protein stability index (doa10∆) | protein stability index (pdr5∆) | protein stability index (san1∆) | protein stability index (ubr1∆) |
| --- | --- | --- | --- | --- |
| LWALLNFLLPDIFGDSE [ISW2] | 2.15 ± 0.05 | 1.98 ± 0.05 | 2.52 ± 0.07 | 2.64 ± 0.043 |
| LLNRIPRMYHIGLRQFQ [POP1] | 2.09 ± 0.099 | 1.51 ± 0.077 | 1.72 ± 0.18 | 1.3 ± 0.11 |
| VDREAMLKPNIIFQQLL [YCG1] | 2.98 ± 0.24 | 2.78 ± 0.19 |  |  |
| ATNANATTDQEGDIHLE [PRE10] | 3.35 ± 0.23 | 3.39 ± 0.14 | 3.33 ± 0.036 | 3.11 ± 0.12 |
| YSPNTLGHPDNYIPGNP [COB] | 2.52 ± 0.11 | 2.27 ± 0.088 | 2.9 ± 0.064 | 2.43 ± 0.047 |
| QTLYTGDKVVVTIWYRA [SSN3] | 1.22 ± 0.058 | 1.32 ± 0.069 | 1.25 ± 0.13 | 1.47 ± 0.047 |
| IEQFAMRRNSKILNIIK [POP5] | 3.08 ± 0.084 | 2.88 ± 0.077 | 2.86 ± 0.076 | 3.23 ± 0.07 |
| LASIPDIFITPTPVVTI [SSN2] | 1.71 ± 0.054 | 1.65 ± 0.054 | 1.45 ± 0.098 | 1.63 ± 0.044 |
| VEEYTWSSLLNEGLVEY [RPB2] |  | 3.2 ± 0.18 | 3.11 ± 0.089 |  |
| DVLTLENIQEGTSLTIQ [CDC53] | 3.17 ± 0.1 | 3.22 ± 0.14 | 3.1 ± 0.056 | 3.14 ± 0.054 |
| RWYQLIATGCKDGRIRI [YGL100W/SEH1] | 2.31 ± 0.065 | 2.26 ± 0.057 | 2.18 ± 0.078 | 2.43 ± 0.044 |
| NFLLPDIFGDSELFDEW [ISW2] | 2.25 ± 0.059 | 2.46 ± 0.076 | 2.79 ± 0.07 | 2.72 ± 0.059 |
| EEYRKQLDKKNELQKFQ [SMC1] | 3.44 ± 0.22 | 3.43 ± 0.12 | 2.82 ± 0.079 | 3.45 ± 0.1 |
| GDPFDYKAQADTFYMNV [RPB3] | 3.4 ± 0.1 | 3.44 ± 0.1 | 3.33 ± 0.063 | 3.36 ± 0.083 |
| NAKIIDAEVAQFLEQGL [SRP68] | 2.83 ± 0.057 | 2.59 ± 0.045 | 2.12 ± 0.073 | 3.08 ± 0.041 |
| NKLMEKDFQVNKEIKPY [SIR4] | 3.35 ± 0.059 | 3.38 ± 0.054 | 3.12 ± 0.059 | 3.28 ± 0.047 |
| DINTVNTNLMNGVNVQI [GRR1] | 3.21 ± 0.097 | 3 ± 0.087 | 2.98 ± 0.074 | 3.06 ± 0.073 |
| TKSKEQLASQLVDLKKE [RPL35A] |  |  | 3.12 ± 0.098 | 3.2 ± 0.17 |
| YQLYTSNPSGNYTGWKA [PRE9] | 2.9 ± 0.065 | 3.08 ± 0.065 | 3.14 ± 0.055 | 3.17 ± 0.04 |
| VTAEDFKQAKERVMKNK [RPT2] | 3.69 ± 0.23 | 3.52 ± 0.12 | 3.52 ± 0.11 | 3.42 ± 0.11 |
| TFDLTPEDAQLLLAANT [RPS0A] | 2.28 ± 0.054 | 1.88 ± 0.049 | 2.31 ± 0.088 | 2.45 ± 0.053 |
| MNECIADQDMEDEDMVD [ESC2] | 3.18 ± 0.072 | 3.35 ± 0.11 | 3.3 ± 0.048 | 3.08 ± 0.058 |

| Sequence | protein stability index (doa10∆) | protein stability index (pdr5∆) | protein stability index (san1∆) | protein stability index (ubr1∆) |
| --- | --- | --- | --- | --- |
| GVRSNHLRSNILKDLIY [SMC1] | 2.47 ± 0.28 | 2.35 ± 0.16 |  | 2.82 ± 0.13 |
| LNDRKVLFAAYKVEHPF [RPB11] | 1.72 ± 0.055 | 2.23 ± 0.058 | 2.03 ± 0.084 | 2.27 ± 0.051 |
| MERFSVLCNSNISKSRA [RRP6] | 2.42 ± 0.066 | 2.46 ± 0.096 | 1.98 ± 0.084 | 2.12 ± 0.056 |
| RFISDLLWLVLIHPENF [SWI1] | 1.82 ± 0.081 | 1.28 ± 0.092 | 1.86 ± 0.2 | 2.59 ± 0.18 |
| LFGMCESLYEPNLEPED [PUP3] | 2.77 ± 0.19 | 3.53 ± 0.2 | 3.32 ± 0.081 | 3.27 ± 0.1 |
| ELMAMNITPRLYTDRSR [RPB2] | 1.91 ± 0.12 | 1.68 ± 0.074 | 1.23 ± 0.13 | 1.96 ± 0.074 |
| TLLRLNELLDLTESQTE [RPN5] | 2.39 ± 0.089 | 2.18 ± 0.092 | 2.71 ± 0.11 | 2.74 ± 0.072 |
| KIPAVEYFGGESPVDVQ [FAS1] | 2.97 ± 0.13 | 3.4 ± 0.099 | 3.19 ± 0.1 | 3.09 ± 0.092 |
| NASKVISTPIINAVLVN [RPO31] | 1.63 ± 0.11 | 2.19 ± 0.14 | 1.74 ± 0.2 |  |
| NIPRRELKINLPLTEHK [SRB4] | 2.93 ± 0.094 | 2.66 ± 0.072 | 3.23 ± 0.058 | 3.03 ± 0.12 |
| GKTGLSNMILGSVELST [YML103C/NUP188] | 2.24 ± 0.056 | 2.57 ± 0.086 | 2.34 ± 0.069 | 2.33 ± 0.042 |
| CSIEPIAAKLINSGLYS [YML103C/NUP188] | 1.77 ± 0.066 | 1.29 ± 0.065 | 1.67 ± 0.12 | 1.19 ± 0.062 |
| DEIYIPINGNEAESQWY [CSI1] | 2.63 ± 0.065 | 3.13 ± 0.06 | 3.11 ± 0.07 | 3.31 ± 0.064 |
| DDETPSCEVEEIGLLGG [SNU114] | 3.13 ± 0.11 | 3.35 ± 0.084 | 3.26 ± 0.07 | 3.14 ± 0.065 |
| KRLNGKRKYLDIPIDEM [SSN2] | 3.19 ± 0.13 | 2.97 ± 0.14 | 3.23 ± 0.078 | 3.14 ± 0.17 |
| GSARTRWEMEAFGEFSL [FAS2] | 1.78 ± 0.072 | 2.92 ± 0.13 | 2.93 ± 0.098 | 2.24 ± 0.098 |
| TPESVKPANASHAIRLG [RGR1] | 2.63 ± 0.049 | 2.42 ± 0.037 | 2.98 ± 0.045 | 2.47 ± 0.039 |
| ETATSERNASEVRDATL [GRR1] | 3.53 ± 0.19 | 3.45 ± 0.19 |  | 3.52 ± 0.19 |
| IYFTVPNEFEIQLSTVN [RGR1] | 2.21 ± 0.064 | 2.22 ± 0.058 | 1.88 ± 0.061 | 2.2 ± 0.042 |
| EAFNDGNENFEDFDVEH [RPO26] | 2.97 ± 0.079 | 3.15 ± 0.086 | 2.92 ± 0.085 | 3.21 ± 0.079 |
| QLDDEDFDLLNKTLTFE [FAS1] | 3.38 ± 0.12 | 3.58 ± 0.098 | 3.36 ± 0.069 | 3.16 ± 0.085 |
